From paper PMC7948962, “Wzb of Vibrio vulnificus represents a new group of low-molecular-weight protein tyrosine phosphatases with a unique insertion in the W-loop” (The Journal of Biological Chemistry, 2021)

System: O=[N+]([O-])c1ccc(OP(=O)(O)O)cc1
Assay: p-nitrophenol release, A405, initial velocity, Michaelis-Menten fit
Assay type: biochemical, Escherichia coli
Conditions: 10 mM HEPES pH 7.5, 150 mM NaCl, 20 °C, 200 nM enzyme
Excerpt: p-nitrophenol release, A405, initial velocity, Michaelis-Menten fit on EcWzb

EcWzb (Escherichia coli K-12; INS39EKSR)
Km (A39_L40insEKSR): 2530 ± 30 µM | kcat (A39_L40insEKSR): 9.34 ± 0.1 s⁻¹ | kcat/Km (A39_L40insEKSR): 3690 M⁻¹ s⁻¹

EcWzb (Escherichia coli K-12)
Km: 3480 ± 240 µM | kcat: 2.84 ± 0.1 s⁻¹ | kcat/Km: 820 M⁻¹ s⁻¹

EcWzb (Escherichia coli K-12; INS39AAAA)
Km (A39_L40insAAAA): 2050 ± 100 µM | kcat (A39_L40insAAAA): 6.09 ± 0.09 s⁻¹ | kcat/Km (A39_L40insAAAA): 2970 M⁻¹ s⁻¹
